Assay results from publication PMC11901735.

Legend:
[1] = target: Recombinant human GLP-1R protein (human) (UniProt P43220); assay: SPR; Biacore T200; recombinant human GLP-1R (0.5 μM) immobilized on a CM5 sensor chip; peptides injected at four-fold serial dilutions (0, 0.1-100 nM); n = 3; 1:1 interaction model
[2] = target: GLP-1R of mouse pancreatic β-cells (mouse (endogenous in ddY mouse pancreas)) (UniProt O35659)
Chain of GLP-1R of mouse pancreatic β-cells (mouse (endogenous in ddY mouse pancreas)) (O35659 22-463): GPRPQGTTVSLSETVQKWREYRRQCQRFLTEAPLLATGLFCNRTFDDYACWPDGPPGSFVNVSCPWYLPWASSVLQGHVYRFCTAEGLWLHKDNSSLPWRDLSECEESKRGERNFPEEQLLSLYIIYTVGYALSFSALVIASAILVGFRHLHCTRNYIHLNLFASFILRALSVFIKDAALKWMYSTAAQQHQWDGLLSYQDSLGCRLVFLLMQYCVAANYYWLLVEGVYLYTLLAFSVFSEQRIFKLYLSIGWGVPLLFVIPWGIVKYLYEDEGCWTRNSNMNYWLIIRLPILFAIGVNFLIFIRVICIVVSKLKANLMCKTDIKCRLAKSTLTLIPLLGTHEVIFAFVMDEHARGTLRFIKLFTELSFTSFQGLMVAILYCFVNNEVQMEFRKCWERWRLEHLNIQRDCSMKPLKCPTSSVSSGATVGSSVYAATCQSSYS

Chain of Recombinant human GLP-1R protein (human) (P43220 24-463): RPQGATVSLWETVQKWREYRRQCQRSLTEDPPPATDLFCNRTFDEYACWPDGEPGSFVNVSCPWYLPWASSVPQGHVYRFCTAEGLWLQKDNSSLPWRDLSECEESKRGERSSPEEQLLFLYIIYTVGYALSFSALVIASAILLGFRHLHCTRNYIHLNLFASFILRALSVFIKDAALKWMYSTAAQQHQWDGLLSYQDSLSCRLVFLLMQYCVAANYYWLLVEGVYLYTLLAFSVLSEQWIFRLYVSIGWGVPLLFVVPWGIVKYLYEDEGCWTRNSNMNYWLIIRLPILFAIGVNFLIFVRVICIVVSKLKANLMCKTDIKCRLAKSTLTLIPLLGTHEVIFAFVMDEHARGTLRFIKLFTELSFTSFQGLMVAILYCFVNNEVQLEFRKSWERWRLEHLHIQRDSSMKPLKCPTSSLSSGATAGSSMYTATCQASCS

I-Ex-4, Ex-4-C40 labeled with IPM at the additional C-terminal Cys (peptide)
Kd [1]: 28.1 nM | radioactivity in the pancreas 5-120 min after i.v. administration of [^125I]I-Ex-4 to mice (highest at 60 min) (% injected dose per gram tissue) [2]: 11.3
